Data as given in publication PMC4243253.

System: N[C@@H](CC(=O)c1ccccc1NC=O)C(=O)O
Experiment: purified protein
Settings: pH 7.4; 25.0 °C

BaKynB (Bacillus anthracis)
Km: 400 ± 50 µM
Vmax: 0.0654 µmol/min
kcat/Km: 126000 M⁻¹ s⁻¹
